{"source": "paper PMC9482650", "about": "“Quantitative fragmentomics allow affinity mapping of interactomes” (Nature Communications, 2022)", "binders": {"B1": {"name": "PDGFRB, P09619 (peptide)", "chain": "PRAEAEDSFL"}, "B2": {"name": "CAVIN3, Q969G5 (peptide)", "chain": "EALLQMESVA"}}}
{"molecular_target": "T1, DLG3_1, Q92796", "T1 sequence (Q92796 125-227, limits assumed, looked up)": "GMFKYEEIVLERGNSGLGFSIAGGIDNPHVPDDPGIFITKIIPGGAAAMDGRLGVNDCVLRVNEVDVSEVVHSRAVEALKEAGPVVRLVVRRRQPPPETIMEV", "assay": "holdup assay", "set-up": "key: below the threshold = too weak to quantify, mostly under pKd 3.1 to 4", "conditions": "plain residues with an end cap or a label only (N-terminal biotin on a linker: ado-ado)"}
{"binder": "B1", "pKd": "below the threshold"}
{"binder": "B2", "pKd": "below the threshold"}
{"molecular_target": "DLG4_1, P78352", "sequence (P78352 62-152)": "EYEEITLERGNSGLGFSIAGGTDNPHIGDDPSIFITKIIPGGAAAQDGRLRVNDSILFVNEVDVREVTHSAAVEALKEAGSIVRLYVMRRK", "assay": "holdup assay", "set-up": "key: below the threshold = too weak to quantify, mostly under pKd 3.1 to 4", "conditions": "plain residues with an end cap or a label only (N-terminal biotin on a linker: ado-ado)"}
{"binder": "B1", "pKd": 3.72}
{"binder": "B2", "pKd": "below the threshold"}
{"molecular_target": "T2, GRIP1_3, Q9Y3R0", "T2 sequence (Q9Y3R0 247-346, limits assumed, looked up)": "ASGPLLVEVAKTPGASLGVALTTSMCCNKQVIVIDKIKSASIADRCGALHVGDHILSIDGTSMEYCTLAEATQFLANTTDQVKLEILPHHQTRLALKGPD", "assay": "holdup assay", "set-up": "key: below the threshold = too weak to quantify, mostly under pKd 3.1 to 4", "conditions": "plain residues with an end cap or a label only (N-terminal biotin on a linker: ado-ado)"}
{"binder": "B1", "pKd": "below the threshold"}
{"binder": "B2", "pKd": "below the threshold"}
{"molecular_target": "T3, APBA1_2, Q02410", "T3 sequence (Q02410 742-832, limits assumed, looked up)": "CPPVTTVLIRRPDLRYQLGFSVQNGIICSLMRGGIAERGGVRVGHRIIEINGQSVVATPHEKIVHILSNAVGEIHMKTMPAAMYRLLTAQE", "assay": "holdup assay", "set-up": "key: below the threshold = too weak to quantify, mostly under pKd 3.1 to 4", "conditions": "plain residues with an end cap or a label only (N-terminal biotin on a linker: ado-ado)"}
{"binder": "B1", "pKd": 3.65}
{"binder": "B2", "pKd": 3.5}
{"molecular_target": "MAGI1_1, Q96QZ7", "sequence (Q96QZ7 1-106)": "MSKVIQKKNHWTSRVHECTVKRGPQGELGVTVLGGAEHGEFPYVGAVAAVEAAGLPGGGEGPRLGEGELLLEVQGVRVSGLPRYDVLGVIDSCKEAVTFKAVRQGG", "assay": "holdup assay", "set-up": "key: below the threshold = too weak to quantify, mostly under pKd 3.1 to 4", "conditions": "plain residues with an end cap or a label only (N-terminal biotin on a linker: ado-ado)"}
{"binder": "B1", "pKd": 3.58}
{"binder": "B2", "pKd": "below the threshold"}
{"molecular_target": "T4, RHPN1, Q8TCX5", "T4 sequence (Q8TCX5 508-602, limits assumed, looked up)": "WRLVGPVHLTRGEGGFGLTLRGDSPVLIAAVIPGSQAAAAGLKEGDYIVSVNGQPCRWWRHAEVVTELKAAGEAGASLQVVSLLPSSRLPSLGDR", "assay": "holdup assay", "set-up": "key: below the threshold = too weak to quantify, mostly under pKd 3.1 to 4", "conditions": "plain residues with an end cap or a label only (N-terminal biotin on a linker: ado-ado)"}
{"binder": "B1", "pKd": 4.23}
{"binder": "B2", "pKd": 3.69}
{"molecular_target": "AHNAK1, Q09666", "sequence (Q09666 4-100)": "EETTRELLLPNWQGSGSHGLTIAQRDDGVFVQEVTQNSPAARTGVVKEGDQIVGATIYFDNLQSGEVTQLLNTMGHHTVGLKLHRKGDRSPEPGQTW", "assay": "holdup assay", "set-up": "key: below the threshold = too weak to quantify, mostly under pKd 3.1 to 4", "conditions": "plain residues with an end cap or a label only (N-terminal biotin on a linker: ado-ado)"}
{"binder": "B1", "pKd": "below the threshold"}
{"binder": "B2", "pKd": "below the threshold"}
{"molecular_target": "GRIP2_4, Q9C0E4", "sequence (Q9C0E4 446-548)": "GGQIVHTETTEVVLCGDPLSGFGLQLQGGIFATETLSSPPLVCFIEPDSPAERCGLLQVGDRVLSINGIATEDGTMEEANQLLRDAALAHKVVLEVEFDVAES", "assay": "holdup assay", "set-up": "key: below the threshold = too weak to quantify, mostly under pKd 3.1 to 4", "conditions": "plain residues with an end cap or a label only (N-terminal biotin on a linker: ado-ado)"}
{"binder": "B1", "pKd": "below the threshold"}
{"binder": "B2", "pKd": "below the threshold"}
{"molecular_target": "T5, SYNJ2BP, P57105", "T5 sequence (P57105 8-110, limits assumed, looked up)": "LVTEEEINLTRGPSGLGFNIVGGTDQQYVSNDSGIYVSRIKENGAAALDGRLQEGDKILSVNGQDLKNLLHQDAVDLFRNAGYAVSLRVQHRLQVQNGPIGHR", "assay": "holdup assay", "set-up": "key: below the threshold = too weak to quantify, mostly under pKd 3.1 to 4", "conditions": "plain residues with an end cap or a label only (N-terminal biotin on a linker: ado-ado)"}
{"binder": "B1", "pKd": 3.93}
{"binder": "B2", "pKd": 3.52}
{"molecular_target": "T6, DLG3_3, Q92796", "T6 sequence (Q92796 374-475, limits assumed, looked up)": "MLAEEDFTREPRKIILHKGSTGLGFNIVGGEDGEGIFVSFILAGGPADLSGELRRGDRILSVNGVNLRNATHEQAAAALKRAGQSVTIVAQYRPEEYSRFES", "assay": "holdup assay", "set-up": "key: below the threshold = too weak to quantify, mostly under pKd 3.1 to 4", "conditions": "plain residues with an end cap or a label only (N-terminal biotin on a linker: ado-ado)"}
{"binder": "B1", "pKd": "below the threshold"}
{"binder": "B2", "pKd": "below the threshold"}
{"molecular_target": "IL16_3, Q14005", "sequence (Q14005 1107-1207)": "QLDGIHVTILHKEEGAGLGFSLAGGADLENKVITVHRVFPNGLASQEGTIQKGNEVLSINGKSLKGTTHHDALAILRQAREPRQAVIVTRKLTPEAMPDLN", "assay": "holdup assay", "set-up": "key: below the threshold = too weak to quantify, mostly under pKd 3.1 to 4", "conditions": "plain residues with an end cap or a label only (N-terminal biotin on a linker: ado-ado)"}
{"binder": "B1", "pKd": 3.5}
{"binder": "B2", "pKd": "below the threshold"}
{"molecular_target": "GRIP2_5, Q9C0E4", "sequence (Q9C0E4 544-642)": "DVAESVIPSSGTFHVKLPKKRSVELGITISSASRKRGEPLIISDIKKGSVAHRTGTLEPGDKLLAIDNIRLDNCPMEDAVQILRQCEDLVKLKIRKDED", "assay": "holdup assay", "set-up": "key: below the threshold = too weak to quantify, mostly under pKd 3.1 to 4", "conditions": "plain residues with an end cap or a label only (N-terminal biotin on a linker: ado-ado)"}
{"binder": "B1", "pKd": "below the threshold"}
{"binder": "B2", "pKd": "below the threshold"}
{"molecular_target": "SNX27, Q96L92", "assay": "holdup assay", "set-up": "key: below the threshold = too weak to quantify, mostly under pKd 3.1 to 4", "conditions": "plain residues with an end cap or a label only (N-terminal biotin on a linker: ado-ado)"}
{"binder": "B1", "pKd": 4.71}
{"binder": "B2", "pKd": 4.13}
{"molecular_target": "T7, TIAM2, Q8IVF5", "T7 sequence (Q8IVF5 885-986, limits assumed, looked up)": "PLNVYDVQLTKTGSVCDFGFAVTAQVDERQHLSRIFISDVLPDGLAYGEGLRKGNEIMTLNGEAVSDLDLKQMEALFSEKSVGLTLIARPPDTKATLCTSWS", "assay": "holdup assay", "set-up": "key: below the threshold = too weak to quantify, mostly under pKd 3.1 to 4", "conditions": "plain residues with an end cap or a label only (N-terminal biotin on a linker: ado-ado)"}
{"binder": "B1", "pKd": "below the threshold"}
{"binder": "B2", "pKd": 4.12}
{"molecular_target": "T8, MPP2, Q14168", "T8 sequence (Q14168 180-250, limits assumed, looked up)": "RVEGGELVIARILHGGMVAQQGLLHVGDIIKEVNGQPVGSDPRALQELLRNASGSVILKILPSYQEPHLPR", "assay": "holdup assay", "set-up": "key: below the threshold = too weak to quantify, mostly under pKd 3.1 to 4", "conditions": "plain residues with an end cap or a label only (N-terminal biotin on a linker: ado-ado)"}
{"binder": "B1", "pKd": "below the threshold"}
{"binder": "B2", "pKd": "below the threshold"}
{"molecular_target": "T9, NHERF3_1, Q5T2W1", "T9 sequence (Q5T2W1 4-100, limits assumed, looked up)": "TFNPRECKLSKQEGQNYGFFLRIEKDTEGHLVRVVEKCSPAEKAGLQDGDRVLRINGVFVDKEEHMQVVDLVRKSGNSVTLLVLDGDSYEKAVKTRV", "assay": "holdup assay", "set-up": "key: below the threshold = too weak to quantify, mostly under pKd 3.1 to 4", "conditions": "plain residues with an end cap or a label only (N-terminal biotin on a linker: ado-ado)"}
{"binder": "B1", "pKd": 4.76}
{"binder": "B2", "pKd": "below the threshold"}
{"molecular_target": "GRID2IP_2, A4D2P6", "sequence (A4D2P6 272-370)": "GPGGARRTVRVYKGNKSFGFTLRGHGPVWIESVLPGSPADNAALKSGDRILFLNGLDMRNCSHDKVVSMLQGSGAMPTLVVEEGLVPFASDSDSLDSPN", "assay": "holdup assay", "set-up": "key: below the threshold = too weak to quantify, mostly under pKd 3.1 to 4", "conditions": "plain residues with an end cap or a label only (N-terminal biotin on a linker: ado-ado)"}
{"binder": "B1", "pKd": 3.84}
{"binder": "B2", "pKd": "below the threshold"}
{"molecular_target": "FRMPD2_3, Q68DX3", "sequence (Q68DX3 1073-1166)": "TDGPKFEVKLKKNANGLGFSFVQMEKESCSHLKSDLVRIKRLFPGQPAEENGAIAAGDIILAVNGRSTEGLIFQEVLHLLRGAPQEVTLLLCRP", "assay": "holdup assay", "set-up": "key: below the threshold = too weak to quantify, mostly under pKd 3.1 to 4", "conditions": "plain residues with an end cap or a label only (N-terminal biotin on a linker: ado-ado)"}
{"binder": "B1", "pKd": 3.51}
{"binder": "B2", "pKd": "below the threshold"}
{"molecular_target": "PICK1, Q9NRD5", "sequence (Q9NRD5 17-115)": "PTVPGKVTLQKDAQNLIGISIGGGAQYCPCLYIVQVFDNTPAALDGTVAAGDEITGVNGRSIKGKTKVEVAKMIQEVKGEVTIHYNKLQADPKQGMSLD", "assay": "holdup assay", "set-up": "key: below the threshold = too weak to quantify, mostly under pKd 3.1 to 4", "conditions": "plain residues with an end cap or a label only (N-terminal biotin on a linker: ado-ado)"}
{"binder": "B1", "pKd": 4.2}
{"binder": "B2", "pKd": "below the threshold"}
{"molecular_target": "Inadl_8, Q8NI35", "sequence (Q8NI35 1425-1530)": "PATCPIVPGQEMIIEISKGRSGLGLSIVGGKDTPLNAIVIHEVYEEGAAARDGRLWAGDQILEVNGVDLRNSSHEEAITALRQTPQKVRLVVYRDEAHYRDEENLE", "assay": "holdup assay", "set-up": "key: below the threshold = too weak to quantify, mostly under pKd 3.1 to 4", "conditions": "plain residues with an end cap or a label only (N-terminal biotin on a linker: ado-ado)"}
{"binder": "B1", "pKd": "below the threshold"}
{"binder": "B2", "pKd": "below the threshold"}
{"molecular_target": "T10, APBA1_1, Q02410", "T10 sequence (Q02410 651-752, limits assumed, looked up)": "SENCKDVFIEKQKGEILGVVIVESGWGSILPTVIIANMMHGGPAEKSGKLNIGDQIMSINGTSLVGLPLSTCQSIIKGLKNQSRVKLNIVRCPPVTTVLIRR", "assay": "holdup assay", "set-up": "key: below the threshold = too weak to quantify, mostly under pKd 3.1 to 4", "conditions": "plain residues with an end cap or a label only (N-terminal biotin on a linker: ado-ado)"}
{"binder": "B1", "pKd": 3.68}
{"binder": "B2", "pKd": "below the threshold"}
{"molecular_target": "T11, LNX2_2, Q8N448", "T11 sequence (Q8N448 334-432, limits assumed, looked up)": "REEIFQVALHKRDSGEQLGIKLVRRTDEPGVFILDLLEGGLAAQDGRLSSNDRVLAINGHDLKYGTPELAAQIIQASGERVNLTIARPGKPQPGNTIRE", "assay": "holdup assay", "set-up": "key: below the threshold = too weak to quantify, mostly under pKd 3.1 to 4", "conditions": "plain residues with an end cap or a label only (N-terminal biotin on a linker: ado-ado)"}
{"binder": "B1", "pKd": 3.54}
{"binder": "B2", "pKd": "below the threshold"}
{"molecular_target": "PDLIM1, O00151", "sequence (O00151 1-87)": "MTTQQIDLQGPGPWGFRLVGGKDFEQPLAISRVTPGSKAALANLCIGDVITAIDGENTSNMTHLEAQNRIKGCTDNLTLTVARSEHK", "assay": "holdup assay", "set-up": "key: below the threshold = too weak to quantify, mostly under pKd 3.1 to 4", "conditions": "plain residues with an end cap or a label only (N-terminal biotin on a linker: ado-ado)"}
{"binder": "B1", "pKd": 3.54}
{"binder": "B2", "pKd": "below the threshold"}
{"molecular_target": "T12, GRIP1_5, Q9Y3R0", "T12 sequence (Q9Y3R0 568-668, limits assumed, looked up)": "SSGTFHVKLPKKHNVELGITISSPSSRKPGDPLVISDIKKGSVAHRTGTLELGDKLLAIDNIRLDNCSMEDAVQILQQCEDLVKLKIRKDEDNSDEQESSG", "assay": "holdup assay", "set-up": "key: below the threshold = too weak to quantify, mostly under pKd 3.1 to 4", "conditions": "plain residues with an end cap or a label only (N-terminal biotin on a linker: ado-ado)"}
{"binder": "B1", "pKd": 3.53}
{"binder": "B2", "pKd": "below the threshold"}
{"molecular_target": "HTRA1, Q92743", "sequence (Q92743 360-477)": "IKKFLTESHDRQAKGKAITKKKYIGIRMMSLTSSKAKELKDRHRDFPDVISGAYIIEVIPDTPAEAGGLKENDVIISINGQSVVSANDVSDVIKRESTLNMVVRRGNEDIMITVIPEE", "assay": "holdup assay", "set-up": "key: below the threshold = too weak to quantify, mostly under pKd 3.1 to 4", "conditions": "plain residues with an end cap or a label only (N-terminal biotin on a linker: ado-ado)"}
{"binder": "B1", "pKd": 4.27}
{"binder": "B2", "pKd": 3.93}
{"molecular_target": "NOS1, P29475", "sequence (P29475 9-101)": "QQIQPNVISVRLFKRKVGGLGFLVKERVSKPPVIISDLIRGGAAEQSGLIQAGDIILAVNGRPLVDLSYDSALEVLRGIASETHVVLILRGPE", "assay": "holdup assay", "set-up": "key: below the threshold = too weak to quantify, mostly under pKd 3.1 to 4", "conditions": "plain residues with an end cap or a label only (N-terminal biotin on a linker: ado-ado)"}
{"binder": "B1", "pKd": 3.57}
{"binder": "B2", "pKd": "below the threshold"}
